Experimental data: article PMC7550680

Target: NaV1.5 voltage-gated sodium channel α subunit (human SCN5A) (human) (UniProt Q14524)

Substance: Sodium channel β1 subunit carrying p.D103V (β1^D103V) (from UniProt Q07699-1 19-218) (natural protein)
- positive shift of the voltage dependence of activation (V1/2) of the NaV1.5 sodium current with β1^D103V compared to β1^WT, whole cell patch clamp in transfected HEK-293 tsA201 cells: 3.37 mV
